Measured values published in article PMC6016464, “Folding and binding pathways of BH3-only proteins are encoded within their intrinsically disordered sequence, not templated by partner proteins” (The Journal of Biological Chemistry, 2018).
Like-named read-outs stand apart in the source and are kept apart here. Where no end group is shown, it is not given here. The star is where a group is joined. TAMRA = 5-carboxytetramethylrhodamine, CN(C)c1ccc2c(-c3ccc(C(=O)*)cc3C(=O)[O-])c3ccc(=[N+](C)C)cc-3oc2c1

T1: A1 protein (mouse, residues 1-152, P104K C113S, used as wild type) (mouse)
T1 sequence (Q07440 1-152 with P104K C113S, looked up): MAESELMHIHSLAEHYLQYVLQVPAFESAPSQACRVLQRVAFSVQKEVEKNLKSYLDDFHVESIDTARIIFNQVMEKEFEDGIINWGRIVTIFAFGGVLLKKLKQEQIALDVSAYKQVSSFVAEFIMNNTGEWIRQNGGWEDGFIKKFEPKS

T2: MCL-1 (mouse, residues 152-308) (mouse)
T2 construct: remnant of thrombin cleavage at the N-terminus of MCL-1; MCL-1, mouse, residues 152-308, UniProt P97287; source: E. coli C41 pLysS, purified (Ni2+ agarose, thrombin cleavage, ion exchange, Superdex G75 gel filtration); not shown: His6, N-terminal, cleaved
T2 chain: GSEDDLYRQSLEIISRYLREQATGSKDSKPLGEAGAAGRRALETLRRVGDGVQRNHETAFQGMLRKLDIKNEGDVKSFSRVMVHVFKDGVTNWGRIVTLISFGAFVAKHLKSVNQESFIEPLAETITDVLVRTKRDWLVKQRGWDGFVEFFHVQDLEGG


Legend:
[1] = target: T1, A1 protein (mouse, residues 1-152, P104K C113S, used as wild type) (mouse); assay: fluorescence dissociation kinetics with competitor; dissociation; preformed complex of TAMRA-labelled peptide and partner protein mixed with excess unlabeled PUMA peptide as competitor; stopped-flow or Cary Eclipse spectrophotometer; 25 °C; 50 mM sodium phosphate, 0.05% (v/v) Tween 20, pH …
[2] = target: T2, MCL-1 (mouse, residues 152-308); assay: fluorescence dissociation kinetics with competitor; dissociation; preformed complex of TAMRA-labelled peptide and partner protein mixed with excess unlabeled PUMA peptide as competitor; stopped-flow or Cary Eclipse spectrophotometer; 25 °C; 50 mM sodium phosphate, 0.05% (v/v) Tween 20, pH 7.0; details: both partners purified
Method in brief: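 In buffer of 50 mM sodium phosphate with 0.05% (v/v) Tween 20 at pH 7.0 and 25 °C, a preformed complex of mouse MCL-1 (residues 152–308) and TAMRA-labelled peptide was mixed with varying amounts of unlabelled competitor peptide. Fluorescence changes, recorded by stopped-flow for kobs > 0.03 s^−1 or by Cary Eclipse for kobs < 0.03 s^−1, were fit to single exponentials. The dissociation rate constant is the average of the concentration-independent kobs values reached with sufficient competitor excess.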

[3] = target: T1, A1 protein (mouse, residues 1-152, P104K C113S, used as wild type) (mouse); assay: stopped-flow fluorescence kinetics + other: fluorescence dissociation kinetics with competitor; Kd calculated as the ratio koff/kon of the kinetic rate constants; 25 °C; 50 mM sodium phosphate, 0.05% (v/v) Tween 20, pH 7.0
[4] = target: T1, A1 protein (mouse, residues 1-152, P104K C113S, used as wild type) (mouse); assay: stopped-flow fluorescence kinetics; association; TAMRA-labelled peptide with folded partner at least 10-fold higher (pseudo-first-order); kon from the gradient of kobs versus partner concentration; 25 °C; 50 mM sodium phosphate, 0.05% (v/v) Tween 20, pH 7.0
[5] = target: T2, MCL-1 (mouse, residues 152-308); assay: stopped-flow fluorescence kinetics + other: fluorescence dissociation kinetics with competitor; Kd calculated as the ratio koff/kon of the kinetic rate constants; 25 °C; 50 mM sodium phosphate, 0.05% (v/v) Tween 20, pH 7.0; details: both partners purified
[6] = target: T2, MCL-1 (mouse, residues 152-308); assay: stopped-flow fluorescence kinetics; association; TAMRA-labelled peptide with folded partner at least 10-fold higher (pseudo-first-order); kon from the gradient of kobs versus partner concentration; 25 °C; 50 mM sodium phosphate, 0.05% (v/v) Tween 20, pH 7.0; details: both partners purified
Method in brief: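 The association rate constant is the slope of observed rate versus partner concentration, from stopped-flow fluorescence of TAMRA-labelled peptide with mouse MCL-1 (residues 152–308). The partner was in at least 10-fold excess, in 50 mM sodium phosphate, 0.05% (v/v) Tween 20, pH 7.0, at 25 °C. Excitation was at 555 nm with emission above 570 nm, and each observed rate came from a single-exponential fit.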

[7] = target: T1, A1 protein (mouse, residues 1-152, P104K C113S, used as wild type) (mouse); assay: fluorescence polarisation; equilibrium binding by fluorescence anisotropy of the TAMRA-labelled peptide against partner protein concentration; anisotropy adjusted for the change in fluorescence intensity; 25 °C; 50 mM sodium phosphate, 0.05% (v/v) Tween 20, pH 7.0
[8] = target: T1, A1 protein (mouse, residues 1-152, P104K C113S, used as wild type) (mouse); assay: fluorescence dissociation kinetics with competitor; dissociation; preformed complex of TAMRA-labelled peptide and partner protein mixed with excess unlabeled PUMA peptide as competitor; stopped-flow or Cary Eclipse spectrophotometer; 25 °C; 50 mM sodium phosphate, 0.05% (v/v) Tween 20, pH …; remark: listed apart in the source
[9] = target: T1, A1 protein (mouse, residues 1-152, P104K C113S, used as wild type) (mouse); assay: stopped-flow fluorescence kinetics; association; TAMRA-labelled peptide with folded partner at least 10-fold higher (pseudo-first-order); kon from the gradient of kobs versus partner concentration; 25 °C; 50 mM sodium phosphate, 0.05% (v/v) Tween 20, pH 7.0; remark: listed apart in the source
[10] = target: T2, MCL-1 (mouse, residues 152-308); assay: fluorescence polarisation; equilibrium binding by fluorescence anisotropy of the TAMRA-labelled peptide against partner protein concentration; anisotropy adjusted for the change in fluorescence intensity; 25 °C; 50 mM sodium phosphate, 0.05% (v/v) Tween 20, pH 7.0; details: both partners purified
[11] = target: T3, MCL-1 (mouse, residues 152-308) (mouse, UniProt P97287 152-308); assay: dissociation kinetics by competition (fluorescence); preformed complex of TAMRA peptide and partner protein mixed with various concentrations of unlabeled PUMA peptide as competitor; stopped-flow or spectrophotometer; 25 °C; 50 mM sodium phosphate, 0.05% (v/v) Tween 20, pH 7.0; details: both partners purified
T3 construct: MCL-1, mouse, residues 152-308, UniProt P97287; source: recombinantly produced, purified (protocol in the supplemental Experimental Procedures)

[12] = target: T2, MCL-1 (mouse, residues 152-308); assay: other fluorescence titration; equilibrium binding curve of TAMRA-labelled peptide, fluorescence (A.U.) against MCL-1 concentration; 50 mM sodium phosphate, 0.05% (v/v) Tween 20, pH 7.0; details: both partners purified

koff [1] [s⁻¹]	koff [2] [s⁻¹]	Kd [3] [nM]	kon [4] [M⁻¹ s⁻¹]	Kd [5] [nM]	kon [6] [M⁻¹ s⁻¹]	Kd [7] [nM]	koff [8] [s⁻¹]	kon [9] [M⁻¹ s⁻¹]	Kd [10] [nM]	binding result [11]	Kd [12] [nM]	Binder
										binds		{TAMRA}-SESQEEIIHNIARHLAQIGDEMDHNIQPTLVRQLA (peptide, UniProt P70444 76-110, looked up, BID, mouse, residues 76-110, UniProt P70444; source: synthetic peptide (synthesized by Biomatik)) [BID peptide (mouse, residues 76-110), N-terminal TAMRA]
		7.1				5.65	0.0348	4.9e+06				{TAMRA}-RVEEEEWAREIGAQLRRAADDANAQYERRRQEEQH [PUMA L148A peptide (on the M144A wild type), TAMRA-labelled]
		735				710	1.23	1.67e+06				{TAMRA}-RVEEEEWAREIGAQARRAADDLNAQYERRRQEEQH [PUMA L141A peptide (on the M144A wild type), TAMRA-labelled]
		1.4					0.0039	2.78e+06			1.7 ± 0.2	{TAMRA}-RVEEEEWAREIGGQLRRAADDLNGQYERRRQEEQH (peptide, UniProt Q99ML1 127-161, looked up, PUMA, mouse, residues 127-161, UniProt Q99ML1; Double mutant; also called A150G (A139G); source: synthetic peptide (Biomatik)) [PUMA (A139G A150G) peptide (on the M144A wild type), TAMRA-labelled]

Further lines, the binder ahead of its results:

Binder	koff [1] [s⁻¹]	koff [2] [s⁻¹]	Kd [3] [nM]	kon [4] [M⁻¹ s⁻¹]	Kd [5] [nM]	kon [6] [M⁻¹ s⁻¹]	Kd [7] [nM]	koff [8] [s⁻¹]	kon [9] [M⁻¹ s⁻¹]	Kd [10] [nM]	binding result [11]	Kd [12] [nM]
{TAMRA}-SESQEAIIHNIARHLAQIGDEMDHNIQPTLVRQLA (peptide, UniProt P70444 76-110, looked up, BID, mouse, residues 76-110, UniProt P70444; source: synthetic peptide (Biomatik)) [BID E81A peptide, TAMRA-labelled]	0.000213	0.0036	0.02	1.07e+07	0.55	6.5e+06						
{TAMRA}-SESQEEIIHNIARHAAQIGDEMDHNIQPTLVRQLA (peptide, UniProt P70444 76-110, looked up, BID, mouse, residues 76-110, UniProt P70444; source: synthetic peptide (Biomatik)) [BID L90A peptide, TAMRA-labelled]		1.3	210		610	2.1e+06	360	0.66	3.1e+06	1200		
{TAMRA}-SESQEEIAHNIARHLAQIGDEMDHNIQPTLVRQLA (peptide, UniProt P70444 76-110, looked up, BID, mouse, residues 76-110, UniProt P70444; source: synthetic peptide (Biomatik)) [BID I83A peptide, TAMRA-labelled]	0.002	0.014	0.29	7e+06	1.7	8.6e+06						
{TAMRA}-SESQEGIIHNIARHLAQIGDEMDHNIQPTLVRQLA (peptide, UniProt P70444 76-110, looked up, BID, mouse, residues 76-110, UniProt P70444; source: synthetic peptide (Biomatik)) [BID E81G peptide, TAMRA-labelled]	0.000454	0.008	0.047	9.6e+06	1.6	4.8e+06						
{TAMRA}-SESQEEIIHNIARHLAQIGDEMDHNAQPTLVRQLA (peptide, UniProt P70444 76-110, looked up, BID, mouse, residues 76-110, UniProt P70444; source: synthetic peptide (Biomatik)) [BID I101A peptide, TAMRA-labelled]	0.0002	0.0025	0.022	8.6e+06	0.3	8.2e+06						
